Legend:
Experiment in all cases: cell-based or functional assay
[1] = molecular target: HIV-1 Env of pseudovirus 249M B10 (HIV-1)
[2] = molecular target: HIV-1 Env of pseudovirus T278-50 (HIV-1)
[3] = molecular target: HIV-1 Env of pseudovirus HIV-0013095-2.11 (HIV-1)
[4] = molecular target: HIV-1 Env of pseudovirus Du172.17 (HIV-1)
[5] = molecular target: HIV-1 Env of pseudovirus Ce1086_B2 (HIV-1)
[6] = molecular target: HIV-1 Env of pseudovirus TRO.11 (HIV-1)
[7] = molecular target: HIV-1 Env of pseudovirus X1193_c1 (HIV-1)
[8] = molecular target: HIV-1 Env of pseudovirus CAP210.2.00.E8 (HIV-1)
[9] = molecular target: HIV-1 Env of pseudovirus Ce2010_F5 (HIV-1)
[10] = molecular target: HIV-1 Env of pseudovirus ZM109F.PB4 (HIV-1)
[11] = molecular target: HIV-1 Env of pseudovirus 0260.v5.c36 (HIV-1)
[12] = molecular target: HIV-1 Env of pseudovirus C1080.c03 (HIV-1)
[13] = molecular target: HIV-1 Env of pseudovirus WEAU_d15_410_787 (HIV-1)
[14] = molecular target: HIV-1 Env of pseudovirus CNE17 (HIV-1)
[15] = molecular target: HIV-1 Env of pseudovirus ZM135M.PL10a (HIV-1)
[16] = molecular target: HIV-1 Env of pseudovirus WITO4160.33 (HIV-1)
[17] = molecular target: HIV-1 Env of pseudovirus THRO4156.18 (HIV-1)
[18] = molecular target: HIV-1 Env of pseudovirus CNE52 (HIV-1)
[19] = molecular target: HIV-1 Env of pseudovirus ZM214M.PL15 (HIV-1)
[20] = molecular target: HIV-1 Env of pseudovirus CNE8 (HIV-1)
[21] = molecular target: HIV-1 Env of pseudovirus BJOX009000.02.4 (HIV-1)
[22] = molecular target: HIV-1 Env of pseudovirus CNE53 (HIV-1)
[23] = molecular target: HIV-1 Env of pseudovirus Q259.d2.17 (HIV-1)
[24] = molecular target: HIV-1 Env of pseudovirus 6041.v3.c23 (HIV-1)
[25] = molecular target: HIV-1 Env of pseudovirus QH0692.42 (HIV-1)
[26] = molecular target: HIV-1 Env of pseudovirus X2088_c9 (HIV-1)
[27] = molecular target: HIV-1 Env of pseudovirus 191084 B7-19 (HIV-1)
[28] = molecular target: HIV-1 Env of pseudovirus Ce2060_G9 (HIV-1)
[29] = molecular target: HIV-1 Env of pseudovirus ZM53M.PB12 (HIV-1)
[30] = molecular target: HIV-1 Env of pseudovirus X1632_S2_B10 (HIV-1)
[31] = molecular target: HIV-1 Env of pseudovirus MS208.A1 (HIV-1)
[32] = molecular target: HIV-1 Env of pseudovirus T250-4 (HIV-1)
[33] = molecular target: HIV-1 Env of pseudovirus ZM233M.PB6 (HIV-1)
[34] = molecular target: HIV-1 Env of pseudovirus PVO.4 (HIV-1)
[35] = molecular target: HIV-1 Env of pseudovirus AC10.0.29 (HIV-1)
[36] = molecular target: HIV-1 Env of pseudovirus 3365.v2.c2 (HIV-1)
[37] = molecular target: HIV-1 Env of pseudovirus ZM247v1(Rev-) (HIV-1)

With N49P7.1 (antibody) the IC50 [1] was 0.053 µg/mL, the IC80 [1] was 0.225 µg/mL and the MPI [1] was 100. For the same substance, the IC50 [2] was 42.4 µg/mL, the IC80 [2] was over 50 µg/mL and the MPI [2] was 56. The IC50 [3] was 0.105 µg/mL, the IC80 [3] was 0.374 µg/mL and the MPI [3] was 100. The IC50 [4] was 0.185 µg/mL, the IC80 [4] was 0.748 µg/mL and the MPI [4] was 100. For the same substance, the IC50 [5] was 0.121 µg/mL, the IC80 [5] was 0.742 µg/mL and the MPI [5] was 99. The IC50 [6] was 0.055 µg/mL, the IC80 [6] was 0.191 µg/mL and the MPI [6] was 100. For the same substance, the IC50 [7] was 0.035 µg/mL, the IC80 [7] was 0.144 µg/mL and the MPI [7] was 100. The IC50 [8] was 2.03 µg/mL, the IC80 [8] was 7.3 µg/mL and the MPI [8] was 99. It also gave an IC50 [9] of 0.055 µg/mL, an IC80 [9] of 0.208 µg/mL and an MPI [9] of 100. It also gave an IC50 [10] of 0.055 µg/mL, an IC80 [10] of 0.199 µg/mL and an MPI [10] of 100. The IC50 [11] was 0.497 µg/mL, the IC80 [11] was 1.51 µg/mL and the MPI [11] was 100. For the same substance, the IC50 [12] was 0.144 µg/mL, the IC80 [12] was 1.05 µg/mL and the MPI [12] was 100. For the same substance, the IC50 [13] was 0.058 µg/mL, the IC80 [13] was 0.142 µg/mL and the MPI [13] was 100. For the same substance, the IC50 [14] was 0.254 µg/mL, the IC80 [14] was 0.86 µg/mL and the MPI [14] was 100. The IC50 [15] was 0.314 µg/mL, the IC80 [15] was 1.11 µg/mL and the MPI [15] was 99. For the same substance, the IC50 [16] was 0.121 µg/mL, the IC80 [16] was 0.326 µg/mL and the MPI [16] was 100. It also gave an IC50 [17] of 3.07 µg/mL, an IC80 [17] of 12.6 µg/mL and an MPI [17] of 98. It also gave an IC50 [18] of 0.021 µg/mL, an IC80 [18] of 0.058 µg/mL and an MPI [18] of 100. For the same substance, the IC50 [19] was 0.257 µg/mL, the IC80 [19] was 0.853 µg/mL and the MPI [19] was 100. It also gave an IC50 [20] of 0.048 µg/mL, an IC80 [20] of 0.167 µg/mL and an MPI [20] of 100. The IC50 [21] was 0.219 µg/mL, the IC80 [21] was 0.756 µg/mL and the MPI [21] was 100. It also gave an IC50 [22] of 0.066 µg/mL, an IC80 [22] of 0.228 µg/mL and an MPI [22] of 100. The IC50 [23] was 0.505 µg/mL, the IC80 [23] was 4.23 µg/mL and the MPI [23] was 97. For the same substance, the IC50 (neutralisation, TZM.bl cells) [24] was 0.078 µg/mL, the IC80 (neutralisation, TZM.bl cells) [24] was 0.366 µg/mL and the MPI [24] was 100. It also gave an IC50 [25] of 0.764 µg/mL, an IC80 [25] of 2.71 µg/mL and an MPI [25] of 100. The IC50 [26] was 0.199 µg/mL, the IC80 [26] was 0.726 µg/mL and the MPI [26] was 100. It also gave an IC50 [27] of 0.069 µg/mL, an IC80 [27] of 0.2 µg/mL and an MPI [27] of 100. For the same substance, the IC50 [28] was 0.473 µg/mL, the IC80 [28] was 2.41 µg/mL and the MPI [28] was 100. For the same substance, the IC50 [29] was 0.287 µg/mL, the IC80 [29] was 1 µg/mL and the MPI [29] was 100. For the same substance, the IC50 (neutralisation, TZM.bl cells) [30] was 17.9 µg/mL, the IC80 (neutralisation, TZM.bl cells) [30] was over 50 µg/mL and the MPI [30] was 65. For the same substance, the IC50 [31] was 0.12 µg/mL, the IC80 [31] was 0.431 µg/mL and the MPI [31] was 100. For the same substance, the IC50 [32] was 2.27 µg/mL, the IC80 [32] was 24.7 µg/mL and the MPI [32] was 89. It also gave an IC50 [33] of 0.355 µg/mL, an IC80 [33] of 1.25 µg/mL and an MPI [33] of 100. For the same substance, the IC50 [34] was 0.124 µg/mL, the IC80 [34] was 0.421 µg/mL and the MPI [34] was 100. It also gave an IC50 [35] of 5.31 µg/mL, an IC80 [35] of 46.8 µg/mL and an MPI [35] of 85. For the same substance, the IC50 [36] was 0.088 µg/mL, the IC80 [36] was 0.289 µg/mL and the MPI [36] was 100. The IC50 [37] was 0.038 µg/mL, the IC80 [37] was 0.176 µg/mL and the MPI [37] was 100.
